T1: recombinant (10xHis)-labelled At14-3-3ω (Arabidopsis thaliana, UniProt Q01525 1-259)
T1 construct: 14-3-3 isoform omega, Arabidopsis thaliana; Construct details are in the Suppl; Methods; also called His-tagged 14-3-3ω protein; source: host in the Suppl; Methods
T1 sequence (looked up): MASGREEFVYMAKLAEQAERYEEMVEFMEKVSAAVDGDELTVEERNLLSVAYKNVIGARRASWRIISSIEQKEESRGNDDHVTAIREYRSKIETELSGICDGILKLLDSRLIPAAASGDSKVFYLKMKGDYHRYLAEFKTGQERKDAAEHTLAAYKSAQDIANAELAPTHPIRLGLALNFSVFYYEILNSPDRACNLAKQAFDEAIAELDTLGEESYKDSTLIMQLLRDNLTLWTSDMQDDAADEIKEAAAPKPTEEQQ

B1: SOS1 C-term 15-mer peptide, spot H13 (peptide)
peptide: TRQNTMVESSDEEDE
notes: SOS1 (NHX7), Arabidopsis thaliana; source: synthetic peptide, immobilized on a cellulose membrane
B2: SOS1 C-term 15-mer peptide, spot H14 (peptide)
peptide: NTMVESSDEEDEDEG
notes: as for B1

Biological target: T1, recombinant (10xHis)-labelled At14-3-3ω
Test: peptide or protein array; 15-mer synthetic peptides of SOS1 from amino acid 446, overlapping by 12, spotted on a cellulose membrane; incubated with recombinant 10xHis-14-3-3ω; anti-His antibody, HRP-coupled anti-mouse antibody, ECL
Settings: both partners purified

Row | binding result | Binder
1 | binds | B1
2 | binds | B2
